Measured values: IntAct's records for PubMed 32296183

B1: Catenin alpha-3 (Homo sapiens), Q9UI47-2 (parent)
chain: MSAETPITLNIDPQDLQVQTFTVEKLLEPLIIQVTTLVNCPQNPSSRKKGRSKRASVLLASVEEATWNLLDKGEKIAQEATVLKDELTASLEEVRKESEALKVSAERFTDDPCFLPKREAVVQAARALLAAVTRLLILADMIDVMCLLQHVSAFQRTFESLKNVANKSDLQKTYQKLGKELENLDYLAFKRQQDLKSPNQRDEIAGARASLKENSPLLHSICSACLEHSDVASLKASKDTVCEEIQNALNVISNASQGIQNMTTPPEPQAATLGSALDELENLIVLNPLTVTEEEIRPSLEKRLEAIISGAALLADSSCTRDLHRERIIAECNAIRQALQDLLSEYMNNAGKKERSNTLNIALDNMCKKTRDLRRQLRKAIIDHVSDSFLDTTVPLLVLIEAAKNGREKEIKEYAAIFHEHTSRLVEVANLACSMSTNEDGIKIVKIAANHLETLCPQIINAALALAARPKSQAVKNTMEMYKRTWENHIHVLTEAVDDITSIDDFLAVSGMFLFF

Variants of: B1
Settings: with katl1_human KATNAL1, Q9BW62
Chain of katl1_human KATNAL1, Q9BW62 (Q9BW62 whole entry): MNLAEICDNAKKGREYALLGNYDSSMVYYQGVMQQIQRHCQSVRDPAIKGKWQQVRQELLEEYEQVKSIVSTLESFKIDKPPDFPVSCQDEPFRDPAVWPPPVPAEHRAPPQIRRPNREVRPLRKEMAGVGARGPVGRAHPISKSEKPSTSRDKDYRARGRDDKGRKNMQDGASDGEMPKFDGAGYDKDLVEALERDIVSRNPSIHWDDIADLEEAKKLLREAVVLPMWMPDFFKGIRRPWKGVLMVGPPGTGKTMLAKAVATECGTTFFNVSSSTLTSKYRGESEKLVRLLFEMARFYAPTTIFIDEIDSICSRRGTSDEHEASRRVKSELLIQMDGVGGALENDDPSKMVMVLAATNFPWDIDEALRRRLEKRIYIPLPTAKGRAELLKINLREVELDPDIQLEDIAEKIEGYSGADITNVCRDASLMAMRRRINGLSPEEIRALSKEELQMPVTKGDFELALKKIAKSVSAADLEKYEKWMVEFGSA

Variant	effect of a mutation on the interaction
MSAETPITLNIDPQDLQVQTFTVEKLLEPLIIQVTTLVNCPQNPSSRKKGRSKRASVLLASVEEATWNLLDKGEKIAQEATVLKDELTASLEEDRKESEALKVSAERFTDDPCFLPKREAVVQAARALLAAVTRLLILADMIDVMCLLQHVSAFQRTFESLKNVANKSDLQKTYQKLGKELENLDYLAFKRQQDLKSPNQRDEIAGARASLKENSPLLHSICSACLEHSDVASLKASKDTVCEEIQNALNVISNASQGIQNMTTPPEPQAATLGSALDELENLIVLNPLTVTEEEIRPSLEKRLEAIISGAALLADSSCTRDLHRERIIAECNAIRQALQDLLSEYMNNAGKKERSNTLNIALDNMCKKTRDLRRQLRKAIIDHVSDSFLDTTVPLLVLIEAAKNGREKEIKEYAAIFHEHTSRLVEVANLACSMSTNEDGIKIVKIAANHLETLCPQIINAALALAARPKSQAVKNTMEMYKRTWENHIHVLTEAVDDITSIDDFLAVSGMFLFF [V94D]	disrupting interaction strength

Variants of: B1
Settings: with pax6_human PAX6, P26367
Chain of pax6_human PAX6, P26367 (P26367 whole entry): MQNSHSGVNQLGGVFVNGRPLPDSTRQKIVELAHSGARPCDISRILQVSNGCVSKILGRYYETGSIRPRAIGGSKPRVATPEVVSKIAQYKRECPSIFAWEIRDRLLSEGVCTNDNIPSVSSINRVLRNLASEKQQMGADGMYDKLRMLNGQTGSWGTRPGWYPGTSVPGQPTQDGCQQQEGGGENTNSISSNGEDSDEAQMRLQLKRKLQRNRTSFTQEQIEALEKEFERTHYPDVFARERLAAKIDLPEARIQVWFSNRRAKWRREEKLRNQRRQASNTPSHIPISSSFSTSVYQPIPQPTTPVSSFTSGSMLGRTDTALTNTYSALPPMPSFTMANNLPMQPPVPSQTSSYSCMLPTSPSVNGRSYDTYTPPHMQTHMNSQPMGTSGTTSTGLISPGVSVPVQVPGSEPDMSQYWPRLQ

Variant	effect of a mutation on the interaction
MSAETPITLNIDPQDLQVQTFTVEKLLEPLIIQVTTLVNCPQNPSSRKKGRSKRASVLLASVEEATWNLLDKGEKIAQEATVLKDELTASLEEDRKESEALKVSAERFTDDPCFLPKREAVVQAARALLAAVTRLLILADMIDVMCLLQHVSAFQRTFESLKNVANKSDLQKTYQKLGKELENLDYLAFKRQQDLKSPNQRDEIAGARASLKENSPLLHSICSACLEHSDVASLKASKDTVCEEIQNALNVISNASQGIQNMTTPPEPQAATLGSALDELENLIVLNPLTVTEEEIRPSLEKRLEAIISGAALLADSSCTRDLHRERIIAECNAIRQALQDLLSEYMNNAGKKERSNTLNIALDNMCKKTRDLRRQLRKAIIDHVSDSFLDTTVPLLVLIEAAKNGREKEIKEYAAIFHEHTSRLVEVANLACSMSTNEDGIKIVKIAANHLETLCPQIINAALALAARPKSQAVKNTMEMYKRTWENHIHVLTEAVDDITSIDDFLAVSGMFLFF [V94D]	with no effect

Variants of: B1
Settings: with taso2_human TASOR2, Q5VWN6
Chain of taso2_human TASOR2, Q5VWN6 (Q5VWN6 whole entry): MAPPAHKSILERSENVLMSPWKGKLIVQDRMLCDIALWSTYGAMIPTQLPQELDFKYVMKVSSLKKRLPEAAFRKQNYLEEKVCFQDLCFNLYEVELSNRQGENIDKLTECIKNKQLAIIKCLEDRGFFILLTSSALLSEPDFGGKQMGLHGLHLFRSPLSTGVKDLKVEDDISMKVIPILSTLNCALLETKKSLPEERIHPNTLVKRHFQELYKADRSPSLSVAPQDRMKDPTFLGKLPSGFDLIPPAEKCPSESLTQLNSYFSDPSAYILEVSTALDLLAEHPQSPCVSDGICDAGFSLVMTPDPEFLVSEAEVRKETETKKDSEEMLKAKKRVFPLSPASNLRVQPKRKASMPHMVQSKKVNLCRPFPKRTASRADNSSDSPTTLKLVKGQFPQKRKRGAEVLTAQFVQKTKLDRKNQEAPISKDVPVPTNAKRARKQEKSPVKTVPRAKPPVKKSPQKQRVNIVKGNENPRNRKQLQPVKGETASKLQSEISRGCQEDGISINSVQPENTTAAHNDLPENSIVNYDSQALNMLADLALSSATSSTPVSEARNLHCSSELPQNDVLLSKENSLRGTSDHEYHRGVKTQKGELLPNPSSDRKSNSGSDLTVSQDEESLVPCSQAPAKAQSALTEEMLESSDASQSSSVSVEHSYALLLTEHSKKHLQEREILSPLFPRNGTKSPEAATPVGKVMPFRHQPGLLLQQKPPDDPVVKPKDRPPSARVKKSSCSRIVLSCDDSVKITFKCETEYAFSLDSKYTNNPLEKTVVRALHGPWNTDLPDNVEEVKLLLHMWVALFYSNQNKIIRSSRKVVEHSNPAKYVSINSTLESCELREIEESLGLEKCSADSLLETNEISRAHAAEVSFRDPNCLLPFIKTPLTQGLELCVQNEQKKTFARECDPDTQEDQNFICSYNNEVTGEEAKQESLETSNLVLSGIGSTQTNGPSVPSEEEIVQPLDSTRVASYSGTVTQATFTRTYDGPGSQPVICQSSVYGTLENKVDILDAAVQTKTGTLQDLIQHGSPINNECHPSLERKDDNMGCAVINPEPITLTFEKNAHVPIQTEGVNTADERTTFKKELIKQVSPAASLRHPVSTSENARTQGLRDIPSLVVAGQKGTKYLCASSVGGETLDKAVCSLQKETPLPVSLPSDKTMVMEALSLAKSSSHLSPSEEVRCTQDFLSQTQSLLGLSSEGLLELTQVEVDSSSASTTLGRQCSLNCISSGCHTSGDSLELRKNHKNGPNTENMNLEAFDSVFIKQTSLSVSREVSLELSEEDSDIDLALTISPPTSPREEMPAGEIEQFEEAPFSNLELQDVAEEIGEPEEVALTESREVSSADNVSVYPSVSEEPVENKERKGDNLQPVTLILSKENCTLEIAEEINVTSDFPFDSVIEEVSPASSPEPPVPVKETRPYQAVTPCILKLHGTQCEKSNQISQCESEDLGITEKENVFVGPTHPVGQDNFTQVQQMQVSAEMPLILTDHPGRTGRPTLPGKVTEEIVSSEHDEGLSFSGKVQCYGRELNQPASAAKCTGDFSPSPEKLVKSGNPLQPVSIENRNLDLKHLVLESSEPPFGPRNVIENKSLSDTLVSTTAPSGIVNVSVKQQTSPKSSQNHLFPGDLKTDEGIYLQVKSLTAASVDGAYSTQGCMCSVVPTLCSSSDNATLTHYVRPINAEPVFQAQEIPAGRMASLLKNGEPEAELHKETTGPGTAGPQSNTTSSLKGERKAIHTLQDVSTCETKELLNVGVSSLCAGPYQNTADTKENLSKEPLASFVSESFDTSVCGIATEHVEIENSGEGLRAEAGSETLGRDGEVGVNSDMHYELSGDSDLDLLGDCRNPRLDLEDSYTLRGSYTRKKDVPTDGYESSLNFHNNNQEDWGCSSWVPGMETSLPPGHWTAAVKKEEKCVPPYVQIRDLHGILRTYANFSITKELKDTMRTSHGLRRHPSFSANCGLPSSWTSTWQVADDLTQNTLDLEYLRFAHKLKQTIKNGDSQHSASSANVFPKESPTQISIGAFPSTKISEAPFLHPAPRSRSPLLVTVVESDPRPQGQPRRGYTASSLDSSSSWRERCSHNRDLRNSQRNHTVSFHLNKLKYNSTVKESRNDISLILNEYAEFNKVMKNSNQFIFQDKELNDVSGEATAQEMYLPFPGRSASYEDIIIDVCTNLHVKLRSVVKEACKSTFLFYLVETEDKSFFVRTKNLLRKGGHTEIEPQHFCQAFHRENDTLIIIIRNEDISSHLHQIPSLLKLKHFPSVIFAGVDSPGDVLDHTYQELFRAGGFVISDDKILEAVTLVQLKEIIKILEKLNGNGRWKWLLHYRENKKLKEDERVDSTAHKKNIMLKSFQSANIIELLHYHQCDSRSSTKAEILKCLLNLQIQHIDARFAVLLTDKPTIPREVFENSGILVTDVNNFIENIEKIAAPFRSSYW

Variant	effect of a mutation on the interaction
MSAETPITLNIDPQDLQVQTFTVEKLLEPLIIQVTTLVNCPQNPSSRKKGRSKRASVLLASVEEATWNLLDKGEKIAQEATVLKDELTASLEEDRKESEALKVSAERFTDDPCFLPKREAVVQAARALLAAVTRLLILADMIDVMCLLQHVSAFQRTFESLKNVANKSDLQKTYQKLGKELENLDYLAFKRQQDLKSPNQRDEIAGARASLKENSPLLHSICSACLEHSDVASLKASKDTVCEEIQNALNVISNASQGIQNMTTPPEPQAATLGSALDELENLIVLNPLTVTEEEIRPSLEKRLEAIISGAALLADSSCTRDLHRERIIAECNAIRQALQDLLSEYMNNAGKKERSNTLNIALDNMCKKTRDLRRQLRKAIIDHVSDSFLDTTVPLLVLIEAAKNGREKEIKEYAAIFHEHTSRLVEVANLACSMSTNEDGIKIVKIAANHLETLCPQIINAALALAARPKSQAVKNTMEMYKRTWENHIHVLTEAVDDITSIDDFLAVSGMFLFF [V94D]	with no effect

Variants of: B1
Settings: with pnma5_human PNMA5, Q96PV4
Chain of pnma5_human PNMA5, Q96PV4 (Q96PV4 whole entry): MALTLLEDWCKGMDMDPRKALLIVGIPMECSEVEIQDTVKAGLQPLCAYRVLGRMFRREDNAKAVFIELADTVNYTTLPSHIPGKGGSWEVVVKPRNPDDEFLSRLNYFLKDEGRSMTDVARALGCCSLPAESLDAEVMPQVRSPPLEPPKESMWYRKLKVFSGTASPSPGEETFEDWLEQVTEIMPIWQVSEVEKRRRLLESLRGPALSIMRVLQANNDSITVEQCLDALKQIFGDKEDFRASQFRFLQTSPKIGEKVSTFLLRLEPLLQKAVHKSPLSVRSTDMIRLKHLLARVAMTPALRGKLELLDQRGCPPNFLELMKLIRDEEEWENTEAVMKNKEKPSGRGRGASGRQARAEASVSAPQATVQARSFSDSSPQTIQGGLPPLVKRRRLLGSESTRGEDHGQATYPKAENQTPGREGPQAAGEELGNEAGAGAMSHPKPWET

Variant	effect of a mutation on the interaction
MSAETPITLNIDPQDLQVQTFTVEKLLEPLIIQVTTLVNCPQNPSSRKKGRSKRASVLLASVEEATWNLLDKGEKIAQEATVLKDELTASLEEDRKESEALKVSAERFTDDPCFLPKREAVVQAARALLAAVTRLLILADMIDVMCLLQHVSAFQRTFESLKNVANKSDLQKTYQKLGKELENLDYLAFKRQQDLKSPNQRDEIAGARASLKENSPLLHSICSACLEHSDVASLKASKDTVCEEIQNALNVISNASQGIQNMTTPPEPQAATLGSALDELENLIVLNPLTVTEEEIRPSLEKRLEAIISGAALLADSSCTRDLHRERIIAECNAIRQALQDLLSEYMNNAGKKERSNTLNIALDNMCKKTRDLRRQLRKAIIDHVSDSFLDTTVPLLVLIEAAKNGREKEIKEYAAIFHEHTSRLVEVANLACSMSTNEDGIKIVKIAANHLETLCPQIINAALALAARPKSQAVKNTMEMYKRTWENHIHVLTEAVDDITSIDDFLAVSGMFLFF [V94D]	with no effect

Variants of: B1
Settings: with ms18b_human OIP5, O43482
Chain of ms18b_human OIP5, O43482 (O43482 whole entry): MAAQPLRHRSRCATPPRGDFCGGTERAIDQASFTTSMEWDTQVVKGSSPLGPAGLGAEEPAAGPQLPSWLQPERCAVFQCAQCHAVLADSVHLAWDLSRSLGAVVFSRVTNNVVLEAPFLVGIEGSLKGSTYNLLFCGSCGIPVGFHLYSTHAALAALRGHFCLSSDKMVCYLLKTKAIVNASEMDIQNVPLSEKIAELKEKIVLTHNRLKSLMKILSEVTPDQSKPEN

Variant	effect of a mutation on the interaction
MSAETPITLNIDPQDLQVQTFTVEKLLEPLIIQVTTLVNCPQNPSSRKKGRSKRASVLLASVEEATWNLLDKGEKIAQEATVLKDELTASLEEDRKESEALKVSAERFTDDPCFLPKREAVVQAARALLAAVTRLLILADMIDVMCLLQHVSAFQRTFESLKNVANKSDLQKTYQKLGKELENLDYLAFKRQQDLKSPNQRDEIAGARASLKENSPLLHSICSACLEHSDVASLKASKDTVCEEIQNALNVISNASQGIQNMTTPPEPQAATLGSALDELENLIVLNPLTVTEEEIRPSLEKRLEAIISGAALLADSSCTRDLHRERIIAECNAIRQALQDLLSEYMNNAGKKERSNTLNIALDNMCKKTRDLRRQLRKAIIDHVSDSFLDTTVPLLVLIEAAKNGREKEIKEYAAIFHEHTSRLVEVANLACSMSTNEDGIKIVKIAANHLETLCPQIINAALALAARPKSQAVKNTMEMYKRTWENHIHVLTEAVDDITSIDDFLAVSGMFLFF [V94D]	disrupting interaction strength

Variants of: B1
Settings: with cq050_human C17orf50, Q8WW18
Chain of cq050_human C17orf50, Q8WW18 (Q8WW18 whole entry): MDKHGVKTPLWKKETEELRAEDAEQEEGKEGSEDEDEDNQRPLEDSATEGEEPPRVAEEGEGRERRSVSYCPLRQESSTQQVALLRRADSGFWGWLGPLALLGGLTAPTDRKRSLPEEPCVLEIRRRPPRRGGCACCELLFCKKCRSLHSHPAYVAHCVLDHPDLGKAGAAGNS

Variant	effect of a mutation on the interaction
MSAETPITLNIDPQDLQVQTFTVEKLLEPLIIQVTTLVNCPQNPSSRKKGRSKRASVLLASVEEATWNLLDKGEKIAQEATVLKDELTASLEEDRKESEALKVSAERFTDDPCFLPKREAVVQAARALLAAVTRLLILADMIDVMCLLQHVSAFQRTFESLKNVANKSDLQKTYQKLGKELENLDYLAFKRQQDLKSPNQRDEIAGARASLKENSPLLHSICSACLEHSDVASLKASKDTVCEEIQNALNVISNASQGIQNMTTPPEPQAATLGSALDELENLIVLNPLTVTEEEIRPSLEKRLEAIISGAALLADSSCTRDLHRERIIAECNAIRQALQDLLSEYMNNAGKKERSNTLNIALDNMCKKTRDLRRQLRKAIIDHVSDSFLDTTVPLLVLIEAAKNGREKEIKEYAAIFHEHTSRLVEVANLACSMSTNEDGIKIVKIAANHLETLCPQIINAALALAARPKSQAVKNTMEMYKRTWENHIHVLTEAVDDITSIDDFLAVSGMFLFF [V94D]	disrupting interaction strength

Variants of: B1
Settings: with mb3l1_human MBD3L1, Q8WWY6
Chain of mb3l1_human MBD3L1, Q8WWY6 (Q8WWY6 whole entry): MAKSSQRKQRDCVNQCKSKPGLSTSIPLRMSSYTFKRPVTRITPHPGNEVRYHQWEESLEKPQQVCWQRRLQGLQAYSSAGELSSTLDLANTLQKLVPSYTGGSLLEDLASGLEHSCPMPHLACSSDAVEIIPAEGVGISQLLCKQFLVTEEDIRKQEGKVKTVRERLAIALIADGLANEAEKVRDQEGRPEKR

Variant	effect of a mutation on the interaction
MSAETPITLNIDPQDLQVQTFTVEKLLEPLIIQVTTLVNCPQNPSSRKKGRSKRASVLLASVEEATWNLLDKGEKIAQEATVLKDELTASLEEDRKESEALKVSAERFTDDPCFLPKREAVVQAARALLAAVTRLLILADMIDVMCLLQHVSAFQRTFESLKNVANKSDLQKTYQKLGKELENLDYLAFKRQQDLKSPNQRDEIAGARASLKENSPLLHSICSACLEHSDVASLKASKDTVCEEIQNALNVISNASQGIQNMTTPPEPQAATLGSALDELENLIVLNPLTVTEEEIRPSLEKRLEAIISGAALLADSSCTRDLHRERIIAECNAIRQALQDLLSEYMNNAGKKERSNTLNIALDNMCKKTRDLRRQLRKAIIDHVSDSFLDTTVPLLVLIEAAKNGREKEIKEYAAIFHEHTSRLVEVANLACSMSTNEDGIKIVKIAANHLETLCPQIINAALALAARPKSQAVKNTMEMYKRTWENHIHVLTEAVDDITSIDDFLAVSGMFLFF [V94D]	with no effect

Variants of: B1
Settings: with PRR5, P85299-2

Variant	effect of a mutation on the interaction
MSAETPITLNIDPQDLQVQTFTVEKLLEPLIIQVTTLVNCPQNPSSRKKGRSKRASVLLASVEEATWNLLDKGEKIAQEATVLKDELTASLEEDRKESEALKVSAERFTDDPCFLPKREAVVQAARALLAAVTRLLILADMIDVMCLLQHVSAFQRTFESLKNVANKSDLQKTYQKLGKELENLDYLAFKRQQDLKSPNQRDEIAGARASLKENSPLLHSICSACLEHSDVASLKASKDTVCEEIQNALNVISNASQGIQNMTTPPEPQAATLGSALDELENLIVLNPLTVTEEEIRPSLEKRLEAIISGAALLADSSCTRDLHRERIIAECNAIRQALQDLLSEYMNNAGKKERSNTLNIALDNMCKKTRDLRRQLRKAIIDHVSDSFLDTTVPLLVLIEAAKNGREKEIKEYAAIFHEHTSRLVEVANLACSMSTNEDGIKIVKIAANHLETLCPQIINAALALAARPKSQAVKNTMEMYKRTWENHIHVLTEAVDDITSIDDFLAVSGMFLFF [V94D]	disrupting interaction strength

Variants of: B1
Settings: with cenps_human CENPS

Variant	effect of a mutation on the interaction
MSAETPITLNIDPQDLQVQTFTVEKLLEPLIIQVTTLVNCPQNPSSRKKGRSKRASVLLASVEEATWNLLDKGEKIAQEATVLKDELTASLEEDRKESEALKVSAERFTDDPCFLPKREAVVQAARALLAAVTRLLILADMIDVMCLLQHVSAFQRTFESLKNVANKSDLQKTYQKLGKELENLDYLAFKRQQDLKSPNQRDEIAGARASLKENSPLLHSICSACLEHSDVASLKASKDTVCEEIQNALNVISNASQGIQNMTTPPEPQAATLGSALDELENLIVLNPLTVTEEEIRPSLEKRLEAIISGAALLADSSCTRDLHRERIIAECNAIRQALQDLLSEYMNNAGKKERSNTLNIALDNMCKKTRDLRRQLRKAIIDHVSDSFLDTTVPLLVLIEAAKNGREKEIKEYAAIFHEHTSRLVEVANLACSMSTNEDGIKIVKIAANHLETLCPQIINAALALAARPKSQAVKNTMEMYKRTWENHIHVLTEAVDDITSIDDFLAVSGMFLFF [V94D]	disrupting interaction strength

Variants of: B1
Settings: with zn552_human ZNF552, Q9H707
Chain of zn552_human ZNF552, Q9H707 (Q9H707 whole entry): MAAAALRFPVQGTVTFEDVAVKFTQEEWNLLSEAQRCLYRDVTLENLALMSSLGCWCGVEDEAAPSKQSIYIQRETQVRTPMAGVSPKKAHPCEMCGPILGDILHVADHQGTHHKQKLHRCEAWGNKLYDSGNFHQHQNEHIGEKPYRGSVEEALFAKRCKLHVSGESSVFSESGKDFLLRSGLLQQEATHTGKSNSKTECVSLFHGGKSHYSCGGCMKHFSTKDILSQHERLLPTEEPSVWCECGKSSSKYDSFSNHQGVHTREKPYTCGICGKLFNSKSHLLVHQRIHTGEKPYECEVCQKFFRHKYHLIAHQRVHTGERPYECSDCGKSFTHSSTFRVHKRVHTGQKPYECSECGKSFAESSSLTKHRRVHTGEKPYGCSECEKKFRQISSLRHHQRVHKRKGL

Variant	effect of a mutation on the interaction
MSAETPITLNIDPQDLQVQTFTVEKLLEPLIIQVTTLVNCPQNPSSRKKGRSKRASVLLASVEEATWNLLDKGEKIAQEATVLKDELTASLEEDRKESEALKVSAERFTDDPCFLPKREAVVQAARALLAAVTRLLILADMIDVMCLLQHVSAFQRTFESLKNVANKSDLQKTYQKLGKELENLDYLAFKRQQDLKSPNQRDEIAGARASLKENSPLLHSICSACLEHSDVASLKASKDTVCEEIQNALNVISNASQGIQNMTTPPEPQAATLGSALDELENLIVLNPLTVTEEEIRPSLEKRLEAIISGAALLADSSCTRDLHRERIIAECNAIRQALQDLLSEYMNNAGKKERSNTLNIALDNMCKKTRDLRRQLRKAIIDHVSDSFLDTTVPLLVLIEAAKNGREKEIKEYAAIFHEHTSRLVEVANLACSMSTNEDGIKIVKIAANHLETLCPQIINAALALAARPKSQAVKNTMEMYKRTWENHIHVLTEAVDDITSIDDFLAVSGMFLFF [V94D]	disrupting interaction strength
